Three molecules from patent US20130224187A1 (Alexion, published 2013) can be followed below.

One assay has as its target T1, mouse C5a (mouse, UniProt P06684 683-755).
T1 construct: also called recombinant mouse C5a
T1 sequence: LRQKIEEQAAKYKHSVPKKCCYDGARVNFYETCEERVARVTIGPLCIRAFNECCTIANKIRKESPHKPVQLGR
The assay is described as follows: SPR (Biacore); antibody captured by anti-human Fc on CM5 chip, recombinant mouse C5a 0.6-5.9 nM as analyte; 1:1 Langmuir fit; footnote: only an approximation of the KD. As to the method:
The surface was regenerated with 20 mM HCl, 0.02% P20 after each cycle to remove bound antibody and antigen. The data were evaluated using Biacore BlAevaluation software using a 1:1 Langmuir Model Fit (Rmax:Global Fit; R1:Local Fit).

Another assay addresses T2, cynomolgus macaque C5a (cynomolgus macaque).
T2 construct: also called recombinant cynomolgus macaque C5a; cynomolgus C5a
T2 chain: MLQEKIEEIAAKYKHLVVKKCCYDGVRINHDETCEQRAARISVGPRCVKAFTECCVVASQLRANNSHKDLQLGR
The assay is described as follows: SPR (Biacore); antibody captured by anti-human Fc on CM5 chip, recombinant cynomolgus C5a 0.6-5.9 nM as analyte; 1:1 Langmuir fit. As for the experimental part:
The surface was regenerated with 20 mM HCl, 0.02% surfactant P20 (Biacore) after each cycle to remove bound antibody and antigen. The data was evaluated using Biacore BlAevaluation software using a 1:1 Langmuir Model Fit (Rmax:Global Fit; R1:Local Fit). These experiments were for screening purposes with a minimal number of analyte concentrations (3 to 4) with 1 duplicate.

A further assay deals with T3, human C5a (human, UniProt P01031 678-751).
T3 construct: also called hC5a; free human C5a
T3 sequence: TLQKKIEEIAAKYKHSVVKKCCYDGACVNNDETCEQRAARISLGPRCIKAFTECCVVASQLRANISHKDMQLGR
The assay is described as follows: Biolayer interferometry (Octet).

The target in the next assay is T4, human C5a desarg (human, UniProt P01031 678-750).
T4 construct: also called desarginated C5a; hC5a desarg
T4 sequence: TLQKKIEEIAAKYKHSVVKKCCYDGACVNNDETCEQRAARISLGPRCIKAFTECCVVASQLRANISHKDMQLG
The assay is described as follows: Biolayer interferometry (Octet); biotinylated antigen on streptavidin tip, 20 nM IgG in solution.

A further assay deals with T5, human full-length C5 (human, UniProt P01031 19-673; P01031 678-1676).
T5 construct: mature; also called uncleaved human C5; native, fully-folded human C5
T5 sequence (P01031 19-673 limits assumed, one chain of several): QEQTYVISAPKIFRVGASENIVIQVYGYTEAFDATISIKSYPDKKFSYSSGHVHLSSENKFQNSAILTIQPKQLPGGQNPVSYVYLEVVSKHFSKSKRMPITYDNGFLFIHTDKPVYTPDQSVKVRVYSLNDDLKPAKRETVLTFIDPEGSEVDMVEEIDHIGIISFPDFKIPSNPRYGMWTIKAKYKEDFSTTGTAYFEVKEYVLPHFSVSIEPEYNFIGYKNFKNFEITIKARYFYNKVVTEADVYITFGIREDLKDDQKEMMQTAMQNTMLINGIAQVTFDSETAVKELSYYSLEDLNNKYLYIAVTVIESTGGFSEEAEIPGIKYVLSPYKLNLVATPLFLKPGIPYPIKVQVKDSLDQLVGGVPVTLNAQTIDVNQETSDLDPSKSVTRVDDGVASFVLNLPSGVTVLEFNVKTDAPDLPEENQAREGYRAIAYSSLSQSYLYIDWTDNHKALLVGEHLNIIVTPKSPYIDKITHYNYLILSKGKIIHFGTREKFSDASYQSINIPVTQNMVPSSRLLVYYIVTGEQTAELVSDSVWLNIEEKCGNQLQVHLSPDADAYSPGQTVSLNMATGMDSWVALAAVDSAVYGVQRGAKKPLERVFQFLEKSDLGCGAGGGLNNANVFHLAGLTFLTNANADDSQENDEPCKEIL
The assay is described as follows: Biolayer interferometry (Octet); biotinylated antigen on streptavidin tip, IgG in solution.

Another assay addresses T6, human C3a (human, UniProt P01024 672-748).
T6 construct: domain: C3a
The description is as above.

The target of the next assay is T7, human C4a (human, UniProt P0C0L4 680-756).
T7 construct: domain: C4a
T7 sequence (looked up): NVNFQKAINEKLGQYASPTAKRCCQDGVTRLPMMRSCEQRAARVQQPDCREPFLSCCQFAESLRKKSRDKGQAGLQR
The description is as above.

T6 sequence (P01024 672-748 limits assumed): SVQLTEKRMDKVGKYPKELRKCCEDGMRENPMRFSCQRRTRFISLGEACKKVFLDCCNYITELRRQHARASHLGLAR

B1: BNJ383 (antibody, human IgG2, kappa, V domains shown)
VH: QVQLVQSGAEVKKPGASVKVSCKASGYTFTDYSMDWVRQAPGQGLEWMGAIHLNTGYTNYNQKFKGRVTMTRDTSTSTVYMELSSLRSEDTAVYYCARGFYDGYSPMDYWGQGTTVTVSS
VL: DIQMTQSPSSLSASVGDRVTITCRASESVDSYGNSFMHWYQQKPGKAPKLLIYRASNLESGVPSRFSGSGSGTDFTLTISSLQPEDFATYYCQQSNEDPYTFGGGTKVEIKR
notes: Humanized bivalent full length IgG; also called anti-hC5a antibody
Turning to B1, the dissociation constant (Kd) with mouse C5a is approximately 0.379 nM; in the assay with cynomolgus macaque C5a, 3.3 nM.

B2: 5an101ME (antibody, V domains shown)
VH: EVQLQQSGPELVKPGSSVKISCKASGYTFTDYSMDWVKQSHGKSLEWIGAINPNSGGTNYSQKFKDKATLTVDKSSSTAYMELRSLTSEDSAVYYCASSGSYDGYYAMDYWGQGTSVTVSS
VL: DIVMTQSPASLAVSLGQRATISCRASESVDSYGNSFMHWYQQKPGQPPKLLIYRASNLESGIPARFSGSGSRTDFTLTINPVEADDVATYYCQQSNEDPYTFGGGTKLEIKR
notes: Full length mouse IgG2a
For the molecule B2, the binding result with human C5a is given as “binds”; in the assay with human C5a desarg it was “binds”; in the assay with human full-length C5 it was “no binding (tested: 20 nM)”; with human C3a, “no binding (tested: 20 nM)”; in the assay with human C4a, “no binding (tested: 20 nM)”.

B3: 5an180ME (antibody, V domains shown)
VH: EVQLQQPGAEIVRPGASVKLSCRASGYTFTDYWMNWVKQRPGQGLEWIGTIDPSDSYTIYNQKFKGKATLTVDTSSTTAYIQLSSLTSEDSAVYFCARGEDYDVSSYTMDYWGQGTSVTVSS
VL: DIQMTQSPASLSASVGETVTITCRASENIYSYLAWYQQKQGKSPQLLVYNAKTLAEGVPSRFSGSGSGTQFSLKINSLQPEDFGSYYCQHHYGTPYTFGGGTKLEIKR
notes: Full length mouse IgG2a
Consider B3, for which the binding result with human C5a is reported as “binds”; in the assay with human C5a desarg, “binds”; with human full-length C5 it was “no binding (tested: 20 nM)”; in the assay with human C3a, “no binding (tested: 20 nM)”; with human C4a, “no binding (tested: 20 nM)”.
